Experimental data as given in patent publication US20220289850 (published 2022).

What was measured:
human integrin avb5 = molecular target: T1, human integrin avb5 (human, UniProt P06756); assay: FACS HEK cells
T1 chain 1: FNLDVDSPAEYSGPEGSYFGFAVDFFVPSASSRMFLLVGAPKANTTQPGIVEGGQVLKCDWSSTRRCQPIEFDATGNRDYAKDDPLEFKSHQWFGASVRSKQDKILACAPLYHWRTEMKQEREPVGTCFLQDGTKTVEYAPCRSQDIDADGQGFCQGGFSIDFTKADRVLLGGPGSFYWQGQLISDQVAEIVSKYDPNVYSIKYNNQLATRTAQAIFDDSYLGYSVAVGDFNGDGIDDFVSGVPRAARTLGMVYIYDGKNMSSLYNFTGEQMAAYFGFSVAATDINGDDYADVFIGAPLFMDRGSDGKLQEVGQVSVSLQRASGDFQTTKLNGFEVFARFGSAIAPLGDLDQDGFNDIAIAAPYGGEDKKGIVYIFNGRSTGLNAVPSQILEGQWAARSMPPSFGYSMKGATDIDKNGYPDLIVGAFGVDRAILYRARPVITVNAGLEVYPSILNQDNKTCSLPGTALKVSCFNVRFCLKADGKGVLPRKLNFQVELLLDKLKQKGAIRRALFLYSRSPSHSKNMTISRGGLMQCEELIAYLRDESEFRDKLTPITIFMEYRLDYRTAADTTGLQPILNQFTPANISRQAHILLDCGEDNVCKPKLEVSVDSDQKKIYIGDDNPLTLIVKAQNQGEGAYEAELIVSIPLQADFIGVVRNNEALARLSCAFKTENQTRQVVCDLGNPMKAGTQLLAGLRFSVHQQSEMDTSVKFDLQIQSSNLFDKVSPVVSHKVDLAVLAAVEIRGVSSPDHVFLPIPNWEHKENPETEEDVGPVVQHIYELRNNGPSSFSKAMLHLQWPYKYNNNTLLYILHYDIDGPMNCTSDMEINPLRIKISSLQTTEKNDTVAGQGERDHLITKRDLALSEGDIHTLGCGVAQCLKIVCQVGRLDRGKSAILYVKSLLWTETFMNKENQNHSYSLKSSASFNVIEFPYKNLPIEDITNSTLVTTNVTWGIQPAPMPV
T1 chain 2: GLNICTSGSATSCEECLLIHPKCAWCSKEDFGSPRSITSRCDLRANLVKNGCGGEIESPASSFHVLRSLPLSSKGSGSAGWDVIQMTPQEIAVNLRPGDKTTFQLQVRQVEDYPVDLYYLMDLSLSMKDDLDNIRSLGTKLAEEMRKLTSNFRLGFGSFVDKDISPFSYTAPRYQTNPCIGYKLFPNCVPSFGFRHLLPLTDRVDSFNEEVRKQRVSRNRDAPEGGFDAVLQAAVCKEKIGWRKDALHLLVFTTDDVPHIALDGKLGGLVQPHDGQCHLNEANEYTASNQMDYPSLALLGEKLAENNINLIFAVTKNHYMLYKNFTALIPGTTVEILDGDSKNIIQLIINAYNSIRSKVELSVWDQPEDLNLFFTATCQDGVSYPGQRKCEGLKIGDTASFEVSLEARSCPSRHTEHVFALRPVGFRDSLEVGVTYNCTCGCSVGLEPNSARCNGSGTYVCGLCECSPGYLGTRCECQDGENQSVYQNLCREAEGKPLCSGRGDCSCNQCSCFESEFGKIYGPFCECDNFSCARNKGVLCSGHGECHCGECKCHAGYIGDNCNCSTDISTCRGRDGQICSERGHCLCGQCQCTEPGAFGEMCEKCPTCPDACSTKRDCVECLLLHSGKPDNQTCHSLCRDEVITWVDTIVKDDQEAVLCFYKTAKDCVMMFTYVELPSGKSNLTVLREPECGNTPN

C1q = C1q (human, UniProt P02745); assay: other, up to 30 ug/mL
C1q, sequence (P02745 23-245, chain 1 of 3): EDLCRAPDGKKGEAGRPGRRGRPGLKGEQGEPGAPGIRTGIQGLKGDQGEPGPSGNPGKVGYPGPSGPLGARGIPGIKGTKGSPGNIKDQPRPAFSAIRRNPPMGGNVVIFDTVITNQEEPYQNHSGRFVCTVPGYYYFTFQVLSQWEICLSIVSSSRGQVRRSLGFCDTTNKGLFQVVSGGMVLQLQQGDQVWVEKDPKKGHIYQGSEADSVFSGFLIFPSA
C1q, sequence (P02746 28-253, chain 2 of 3, further chain): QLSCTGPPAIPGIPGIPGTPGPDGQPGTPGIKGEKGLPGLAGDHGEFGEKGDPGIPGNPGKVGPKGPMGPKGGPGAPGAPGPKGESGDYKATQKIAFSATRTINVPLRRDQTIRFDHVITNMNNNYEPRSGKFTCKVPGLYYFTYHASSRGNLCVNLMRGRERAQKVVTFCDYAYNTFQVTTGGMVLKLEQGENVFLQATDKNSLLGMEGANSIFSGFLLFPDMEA
C1q, sequence (P02747 29-245, chain 3 of 3, further chain): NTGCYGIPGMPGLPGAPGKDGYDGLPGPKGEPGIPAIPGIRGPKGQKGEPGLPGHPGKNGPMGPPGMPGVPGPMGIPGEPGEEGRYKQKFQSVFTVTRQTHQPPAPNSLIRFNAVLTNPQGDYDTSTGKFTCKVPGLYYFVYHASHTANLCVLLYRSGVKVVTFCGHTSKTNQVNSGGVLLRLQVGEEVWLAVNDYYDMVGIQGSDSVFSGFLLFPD

- binding result (human integrin avb5): no binding
- binding result (C1q): no binding
B1: ADWA11 2.4 IgG (antibody)
chain 1: EVQLVESGGGLVQPGGSLRLSCAASGFNIKDYYMNWVRQAPGKGLEWVGWIDPDQGNTIYEPKFQGRFTISADTSKNSAYLQMNSLRAEDTAVYYCARRLLMDYWGQGTLVTVSSASTKGPSVFPLAPSSKSTSGGTAALGCLVKDYFPEPVTVSWNSGALTSGVHTFPAVLQSSGLYSLSSVVTVPSSSLGTQTYICNVNHKPSNTKVDKKVEPKSCDKTHTCPPCPAPEAAGAPSVFLFPPKPKDTLMISRTPEVTCVVVDVSHEDPEVKFNWYVDGVEVHNAKTKPREEQYNSTYRVVSVLTVLHQDWLNGKEYKCKVSNKALPAPIEKTISKAKGQPREPQVYTLPPSREEMTKNQVSLTCLVKGFYPSDIAVEWESNGQPENNYKTTPPVLDSDGSFFLYSKLTVDKSRWQQGNVFSCSVMHEALHNHYTQKSLSLSPGK
chain 2: DIQMTQSPSSLSASVGDRVTITCRSTKSLSHFNGNTYLFWYQQKPGKAPKRLIYYMSSLASGVPSRFSGSGSGTDFTLTISSLQPEDFATYYCQQSLEYPFTFGGGTKVEIKRTVAAPSVFIFPPSDEQLKSGTASVVCLLNNFYPREAKVQWKVDNALQSGNSQESVTEQDSKDSTYSLSSTLTLSKADYEKHKVYACEVTHQGLSSPVTKSFNRGEC
